From publication PMC6572100, “Structure of the Prx6-subfamily 1-Cys peroxiredoxin from Sulfolobus islandicus” (Acta Crystallographica. Section F, Structural Biology …, 2019)

What was measured:
[1] = target: the molecule itself; experiment: SEC; Superdex 200, about 2 mg protein, 50 mM Na2HPO4 pH 7.4, 150 mM NaCl; untreated protein; molecular-weight standard curve
[2] = target: the molecule itself; experiment: crystal structure; hanging-drop vapor diffusion, 7.5 mg/ml protein in 10 mM Tris-HCl pH 7.5; reservoir 10 mM Tris-HCl pH 7.5, 15% PEG 1500, 0.1 M MgCl2, 283 K; 2.75 Å, space group P212121, ten monomers in the asymmetric unit

B1: Sulfolobus islandicus 1-Cys peroxiredoxin (1-Cys SiPrx) (enzyme, Sulfolobus islandicus REY15a)
chain: MVSEGRIPLIGEKFPEMEVITTHGKIKLPDDYKGRWFVLFSHPGDFTPVCTTEFYSFSKKYEEFKKLNTELIGLSVDSNISHIEWVMWIEKNLKVEVPFPIIADPMGNVAKRLGMIHAESSTATVRAVFIIDDKGTVRLILYYPMEIGRNIDEILRAIRALQLVDKAGVVTPANWPNNELIGDKVINPAPRTIKDAKMRLGQPFDWWFTYKEVKTT
notes: The residue numbers printed in the text (Cys49, His41, Lys24) are one lower than the positions in the printed construct (C50, H42, K25); surmise: the V at position 2 comes from the NcoI cloning site; Decamer (five homodimers) in the crystal and in solution; also called S. islandicus Bcp2; SiRe_0346; source: E. coli Rosetta, purified (HisTrap FF, dialysis); not shown: His6, C-terminal, kept; …
stoichiometry N [1]: ~20 subunits | stoichiometry N [2]: 10 subunits
